Assay results as given in the supplement of paper PMC5998384.

What was measured:
[1] = system: HeLa Kyoto; assay: solubility in G1/S (NP-40 vs SDS abundance) (log2 ratio); higher = more soluble; conditions: cell cycle stage: G1/S
[2] = system: HeLa Kyoto; assay: melting temperature (median over replicates), in situ; higher = more thermally stable
[3] = system: HeLa Kyoto; assay: solubility change mitosis vs G1/S (difference of NP-40 vs SDS log2 ratios) (log2 ratio difference); higher = more soluble in mitosis
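Throughout, for melting temperature (median over replicates), in situ: HeLa Kyoto cells synchronized by double thymidine or nocodazole block, proteins quantified by TMT10plex mass spectrometry, three independent biological replicates.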
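Throughout, for solubility change mitosis vs G1/S (difference of NP-40 vs SDS log2 ratios): synchronized HeLa Kyoto cells (double thymidine block for G1/S, nocodazole release for mitosis), protein amounts in NP-40 versus SDS lysates quantified by mass spectrometry, three biological replicates.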
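Throughout, for solubility in G1/S (NP-40 vs SDS abundance): HeLa Kyoto cells arrested at G1/S by double thymidine block, proteins quantified by TMT10plex mass spectrometry in mild NP-40 versus SDS extracts, three biological replicates.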

Row | Sequence | solubility in G1/S (log2) [1] | melting temperature ([2]; cell cycle stage: G1/S) [°C] | melting temperature ([2]; cell cycle stage: mitosis) [°C] | solubility change mitosis (log2) [3]
1 | MAGVSYAAPWWVSLLHRLPHFDLSWEATSSQFRPEDTDYQQALLLLGAAALACLALDLLFLLFYSFWLCCRRRKSEEHLDADCCCTAWCVIIATLVCSAGIAVGFYGNGETSDGIHRATYSLRHANRTVAGVQDRVWDTAVGLNHTAEPSLQTLERQLAGRPEPLRAVQRLQGLLETLLGYTAAIPFWRNTAVSLEVLAEQVDLYDWYRWLGYLGLLLLDVIICLLVLVGLIRSSKGILVGVCLLGVLALVISWGALGLELAVSVGSSDFCVDPDAYVTKMVEEYSVLSGDILQYYLACSPRAANPFQQKLSGSHKALVEMQDVVAELLRTVPWEQPATKDPLLRVQEVLNGTEVNLQHLTALVDCRSLHLDYVQALTGFCYDGVEGLIYLALFSFVTALMFSSIVCSVPHTWQQKRGPDEDGEEEAAPGPRQAHDSLYRVHMPSLYSCGSSYGSETSIPAAAHTVSNAPVTEYMSQNANFQNPRCENTPLIGRESPPPSYTSSMRAKYLATSQPRPDSSGSH [TTYH3] | 0.256 | 55.3 | 56.1 | -0.146
2 | MAHAGGGSGGSGAGGPAGRGLSGARWGRSGSAGHEKLPVHVEDALTYLDQVKIRFGSDPATYNGFLEIMKEFKSQSIDTPGVIRRVSQLFHEHPDLIVGFNAFLPLGYRIDIPKNGKLNIQSPLTSQENSHNHGDGAEDFKQQVPYKEDKPQVPLESDSVEFNNAISYVNKIKTRFLDHPEIYRSFLEILHTYQKEQLNTRGRPFRGMSEEEVFTEVANLFRGQEDLLSEFGQFLPEAKRSLFTGNGPCEMHSVQKNEHDKTPEHSRKRSRPSLLRPVSAPAKKKMKLRGTKDLSIAAVGKYGTLQEFSFFDKVRRVLKSQEVYENFLRCIALFNQELVSGSELLQLVSPFLGKFPELFAQFKSFLGVKELSFAPPMSDRSGDGISREIDYASCKRIGSSYRALPKTYQQPKCSGRTAICKELDHWTLLQGSWTDDYCMSKFKNTCWIPGYSAGVLNDTWVSFPSWSEDSTFVSSKKTPYEEQLHRCEDERFELDVVLETNLATIRVLESVQKKLSRMAPEDQEKFRLDDSLGGTSEVIQRRAIYRIYGDKAPEIIESLKKNPVTAVPVVLKRLKAKEEEWREAQQGFNKIWREQYEKAYLKSLDHQAVNFKQNDTKALRSKSLLNEIESVYDEHQEQHSEGRSAPSSEPHLIFVYEDRQILEDAAALISYYVKRQPAIQKEDQGTIHQLLHQFVPSLFFSQQLDLGASEESADEDRDSPQGQTTDPSERKKPAPGPHSSPPEEKGAFGDAPATEQPPLPPPAPHKPLDDVYSLFFANNNWYFFLRLHQTLCSRLLKIYRQAQKQLLEYRTEKEREKLLCEGRREKGSDPAMELRLKQPSEVELEEYYPAFLDMVRSLLEGSIDPTQYEDTLREMFTIHAYVGFTMDKLVQNIARQLHHLVSDDVCLKVVELYLNEKKRGAAGGNLSSRCVRAARETSYQWKAERCMADENCFKVMFLQRKGQVIMTIELLDTEEAQTEDPVEVQHLARYVEQYVGTEGASSSPTEGFLLKPVFLQRNLKKFRRRWQSEQARALRGEARSSWKRLVGVESACDVDCRFKLSTHKMVFIVNSEDYMYRRGTLCRAKQVQPLVLLRHHQHFEEWHSRWLEDNVTVEAASLVQDWLMGEEDEDMVPCKTLCETVHVHGLPVTRYRVQYSRRPASP [SIN3B] | -0.231 | 47.9 | 49.3 | 0.0177
3 | MALLFLLPLVMQGVSRAEMGTADLGPSSVPTPTNVTIESYNMNPIVYWEYQIMPQVPVFTVEVKNYGVKNSEWIDACINISHHYCNISDHVGDPSNSLWVRVKARVGQKESAYAKSEEFAVCRDGKIGPPKLDIRKEEKQIMIDIFHPSVFVNGDEQEVDYDPETTCYIRVYNVYVRMNGSEIQYKILTQKEDDCDEIQCQLAIPVSSLNSQYCVSAEGVLHVWGVTTEKSKEVCITIFNSSIKGSLWIPVVAALLLFLVLSLVFICFYIKKINPLKEKSIILPKSLISVVRSATLETKPESKYVSLITSYQPFSLEKEVVCEEPLSPATVPGMHTEDNPGKVEHTEELSSITEVVTTEENIPDVVPGSHLTPIERESSSPLSSNQSEPGSIALNSYHSRNCSESDHSRNGFDTDSSCLESHSSLSDSEFPPNNKGEIKTEGQELITVIKAPTSFGYDKPHVLVDLLVDDSGKESLIGYRPTEDSKEFS [IFNGR1] | 0.103 |  | 55.3 | -0.126
4 | MALTVDVAGPAPWGFRITGGRDFHTPIMVTKVAERGKAKDADLRPGDIIVAINGESAEGMLHAEAQSKIRQSPSPLRLQLDRSQATSPGQTNGDSSLEVLATRFQGSVRTYTESQSSLRSSYSSPTSLSPRAGSPFSPPPSSSSLTGEAAISRSFQSLACSPGLPAADRLSYSGRPGSRQAGLGRAGDSAVLVLPPSPGPRSSRPSMDSEGGSLLLDEDSEVFKMLQENREGRAAPRQSSSFRLLQEALEAEERGGTPAFLPSSLSPQSSLPASRALATPPKLHTCEKCSTSIANQAVRIQEGRYRHPGCYTCADCGLNLKMRGHFWVGDELYCEKHARQRYSAPATLSSRA [PDLIM2] | 0.17 | 55.6 | 53.8 | -0.043
5 | MALVRGAEPAAGPSRWLPTHVQVTVLRARGLRGKSSGAGSTSDAYTVIQVGREKYSTSVVEKTHGCPEWREECSFELPPGALDGLLRAQEADAGPAPWAASSAAACELVLTTMHRSLIGVDKFLGQATVALDEVFGAGRAQHTQWYKLHSKPGKKEKERGEIEVTIQFTRNNLSASMFDLSMKDKPRSPFSKIRDKMKGKKKYDLESASAILPSSAIEDPDLGSLGKMGKAKGFFLRNKLRKSSLTQSNTSLGSDSTLSSASGSLAYQGPGAELLTRSPSRSSWLSTEGGRDSAQSPKLFTHKRTYSDEANQMRVAPPRALLDLQGHLDAASRSSLCVNGSHIYNEEPQGPVRHRSSISGSLPSSGSLQAVSSRFSEEGPRSTDDTWPRGSRSNSSSEAVLGQEELSAQAKVLAPGASHPGEEEGARLPEGKPVQVATPIVASSEAVAEKEGARKEERKPRMGLFHHHHQGLSRSELGRRSSLGEKGGPILGASPHHSSSGEEKAKSSWFGLREAKDPTQKPSPHPVKPLSAAPVEGSPDRKQSRSSLSIALSSGLEKLKTVTSGSIQPVTQAPQAGQMVDTKRLKDSAVLDQSAKYYHLTHDELISLLLQRERELSQRDEHVQELESYIDRLLVRIMETSPTLLQIPPGPPK [RAB11FIP5] | 0.0739 | 50.1 | 49.3 | -0.217
6 | MAPLRFSANLSWLFPELSGLPARVRAAGSSGFEAVEVAWPYAETPEALARAAREAGLRLVLINTPPGDQEKGEMGLGAVPGRQAAFREGLEQAVRYAKALGCPRIHLMAGRVPQGADRIAVKAEMEAVFLENLRHAAGVLAQEDLVGLLEPINTRITDPQYFLDTPQQAAAILQKVGRPNLQLQMDIFHWQIMDGNLTGNIREFLPIVGHVQVAQVPGRGEPSSPGELNFPYLFQLLEDEGYKGFVGCEYQPRGDTVEGLSWLRSYWDRRGHPEAGQ [HYI] | 0.344 | 55.2 | 54.7 | 0.234
7 | MAPRGRKRKAEAAVVAVAEKREKLANGGEGMEEATVVIEHCTSURVYGRNAAALSQALRLEAPELPVKVNPTKPRRGSFEVTLLRPDGSSAELWTGIKKGPPRKLKFPEPQEVVEELKKYLS [SELH] | -0.0665 |  | 52.2 | 0.17
8 | MAQKRPACTLKPECVQQLLVCSQEAKKSAYCPYSHFPVGAALLTQEGRIFKGCNIENACYPLGICAERTAIQKAVSEGYKDFRAIAIASDMQDDFISPCGACRQVMREFGTNWPVYMTKPDGTYIVMTVQELLPSSFGPEDLQKTQ [CDA] | 0.37 | 54.4 | 54 | -0.0534
9 | MASREEVLALQAEVAQREEELNSLKQKLASALLAEQEPQPERLVPVSPLPPKAALSRDEILRYSRQLVLPELGVHGQLRLGTACVLIVGCGGLGCPLAQYLAAAGVGRLGLVDYDVVEMSNLARQVLHGEALAGQAKAFSAAASLRRLNSAVECVPYTQALTPATALDLVRRYDVVADCSDNVPTRYLVNDACVLAGRPLVSASALRFEGQITVYHYDGGPCYRCIFPQPPPAETVTNCADGGVLGVVTGVLGCLQALEVLKIAAGLGPSYSGSLLLFDALRGHFRSIRLRSRRLDCAACGERPTVTDLLDYEAFCGSSATDKCRSLQLLSPEERVSVTDYKRLLDSGAFHLLLDVRPQVEVDICRLPHALHIPLKHLERRDAESLKLLKEAIWEEKQGTQEGAAVPIYVICKLGNDSQKAVKILQSLSAAQELDPLTVRDVVGGLMAWAAKIDGTFPQY [MOCS3] | 0.156 | 51.3 | 49.5 | -0.0562
10 | MASRGKTETSKLKQNLEEQLDRLMQQLQDLEECREELDTDEYEETKKETLEQLSEFNDSLKKIMSGNMTLVDELSGMQLAIQAAISQAFKTPEVIRLFAKKQPGQLRTRLAEMDRDLMVGKLERDLYTQQKVEILTALRKLGEKLTADDEAFLSANAGAILSQFEKVSTDLGSGDKILALASFEVEKTKK [LZIC] | 0.367 | 54.1 | 53.2 | 0.544
